According to patent US20190367619A1 (ARGENX, published 2019):
Substitutions are numbered along the chain they refer to. Values belong to the binder of their own block, whether it stands above or below them.

Columns and labels:
[1] = target: T1, cynomolgus galectin-10-His, WGS isoform (cynomolgus); experiment: SPR Biacore (summary table)
T1 construct: also called cynoGal10-WGS; not shown: His tag
T1 chain: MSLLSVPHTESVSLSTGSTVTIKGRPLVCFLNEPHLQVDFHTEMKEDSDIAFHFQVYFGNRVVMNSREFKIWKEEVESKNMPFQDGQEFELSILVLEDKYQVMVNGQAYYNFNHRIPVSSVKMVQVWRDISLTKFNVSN
Description: (§1) The binding properties of the scFv-human Fc panel to galectin-10 were analyzed on the Biacore T3000. For this purpose, a CM5 Chip was coated with polyclonal anti-human Fc at 8000 RU, then a fixed concentration of the scFv-human Fc panel (1.5 μg/mL) were captured to reach a binding signal around 150 RU. Finally, a serial dilution of human or cynomolgus WGS isoform of galectin-10-His (serial dilution, 1 over 2 from 5 μg/mL, 6 points of dilution) was injected. Raw data were analyzed via BIA evaluation software with a blank subtraction (4-3). Finally, the kd/KD and Rmax of each scFv-human Fc to galectin-10-His was determined using the Fit Kinetics simultaneous ka/kd/Binding with mass transfer/Local Rmax on BIA evaluation software.

human galectin-10-His [2] = target: T2, human galectin-10-His (human); experiment: SPR Biacore (summary table)
T2 construct: The last M of the tag may be Met1 of galectin-10; also called humanGal10-His; hGal10
T2 chain: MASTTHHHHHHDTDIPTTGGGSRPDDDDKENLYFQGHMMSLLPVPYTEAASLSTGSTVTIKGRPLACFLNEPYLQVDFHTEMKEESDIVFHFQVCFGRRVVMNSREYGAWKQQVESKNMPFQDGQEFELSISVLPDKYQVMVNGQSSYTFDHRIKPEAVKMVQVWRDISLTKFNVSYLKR
Description: as §1

[3] = target: T1, cynomolgus galectin-10-His, WGS isoform; experiment: binding ELISA (summary table)
Description: (§2) In a similar setup to that used during the initial screening, the relative binding properties of the 11 new scFv-human Fc clones were analyzed by ELISA. Briefly, a Maxisorp plate was coated overnight with human or cynomolgus WGS or YRT isoforms of galectin-10-His at 0.2 μg/mL and blocked with PBS 1% casein, before being incubated with a serial dilution of the scFv-human Fc fusion molecules (from 100 nM, dilution 1/5, 8 points of dilutions). After several washing steps, detection of the bound scFv-human Fc was carried out with an anti-human Fc-HRP antibody (Jackson ImmunoResearch, Catalog 109-035-008). Absorbance was measured at 450 nm (reference at 620 nm) with Tecan instrument. Finally, the raw data (OD values) were plotted on GraphPad Prism 7.01. The EC50 values of each clone, calculated with a non-linear regression (log(agonist) vs. response Variable slope (four parameters)) are reported in Table 19 below. As a positive control, clone 6F05 from the previous galectin-10 antibody panel was included.

human galectin-10-His [4] = target: T2, human galectin-10-His; experiment: binding ELISA (summary table)
Description: as §2

[5] = target: T3, cynomolgus galectin-10-His, YRT isoform (cynomolgus); experiment: binding ELISA (summary table)
T3 construct: also called cynoGal10-YRT; not shown: His tag
T3 chain: T1 chain with K23E, G24A, L31F, F69Y, K70R, I71T, S92R
Description: as §2

[6] = target: T1, cynomolgus galectin-10-His, WGS isoform; experiment: SPR Biacore T3000, scFv-human Fc captured
Description: as §1

human galectin-10-His [7] = target: T2, human galectin-10-His; experiment: SPR Biacore T3000, scFv-human Fc captured
Description: as §1

[8] = target: T1, cynomolgus galectin-10-His, WGS isoform; experiment: ELISA, coated antigen 0.2 ug/mL
Description: as §2

human galectin-10-His [9] = target: T2, human galectin-10-His; experiment: ELISA, coated antigen 0.2 ug/mL
Description: as §2

[10] = target: T3, cynomolgus galectin-10-His, YRT isoform; experiment: ELISA, coated antigen 0.2 ug/mL
Description: as §2

Kd [1]: 2700 pM | koff [1]: 0.00122 s⁻¹ | kon [1]: 450000 M⁻¹ s⁻¹ | Kd (human galectin-10-His [2]): 2000 pM | koff (human galectin-10-His [2]): 0.00066 s⁻¹ | kon (human galectin-10-His [2]): 340000 M⁻¹ s⁻¹ | EC50 [3]: 1120 pM | EC50 (human galectin-10-His [4]): 560 pM | EC50 [5]: 1400 pM | Kd [6]: 2700 pM | koff [6]: 0.00122 s⁻¹ | kon [6]: 450000 M⁻¹ s⁻¹ | Kd (human galectin-10-His [7]): 2000 pM | koff (human galectin-10-His [7]): 0.00066 s⁻¹ | kon (human galectin-10-His [7]): 340000 M⁻¹ s⁻¹ | Bmax [8]: 3.1 OD | EC50 [8]: 1120 pM | Bmax (human galectin-10-His [9]): 1.9 OD | EC50 (human galectin-10-His [9]): 560 pM | Bmax [10]: 2 OD | EC50 [10]: 1400 pM
B3: 10D02 scFv-human Fc (Fc fusion)
scFv: EVQLVESGGGLVQPGGSLRVSCAASGFTFSSYYMSWVRQAPGKGLEWVSGIVTGGGRTHYTDSVKGRFTITRDNAKNTLYLQMNSLRPEDTALYYCARVNGVVTNYDYWGQGTQVTVSSGGGGSGGGGSGGGGSQAVLTQPPSVSGSPGKTVTISCAGTSSDVGYGNYVSWYQQLPGMAPKLLIYDVNKRASGITDRFSGSKSGNTASLTISGLQSEDEADYFCASYRSPNNVVFGQGTHLTVL
notes: also called 010D02; not shown: CH2-CH3 constant domains of human IgG1 (pUPEX50 scFv-Fc fusion vector)

Kd (human galectin-10-His [2]): 2300 pM | koff (human galectin-10-His [2]): 0.00072 s⁻¹ | kon (human galectin-10-His [2]): 320000 M⁻¹ s⁻¹ | EC50 (human galectin-10-His [4]): 560 pM | EC50 [5]: 240 pM | Kd (human galectin-10-His [7]): 2300 pM | koff (human galectin-10-His [7]): 0.00072 s⁻¹ | kon (human galectin-10-His [7]): 320000 M⁻¹ s⁻¹ | Bmax (human galectin-10-His [9]): 1.8 OD | EC50 (human galectin-10-His [9]): 560 pM | Bmax [10]: 3 OD | EC50 [10]: 240 pM
B4: 11F12 scFv-human Fc (Fc fusion)
scFv: QVQLQESGGGLVQPGGSLRLSCAASGFTFSTNYMNWVRQAPGKGLEWVSGITSGGGRTYYADSVKGRFTISRDNAKNTLYLQMNSLKPEDTALYYCARTDHAWLDAWGQGTLVTVSSGGGGSGGGGSGGGGSHSAVTQPPSVSGTLGKTVTISCAGTSSDVGYGNYVSWYQHLPGTAPKLLIYAVSTRASGVPDRFSGSKSGNTASLTISGLQSEDEGDYYCASYSVRNNVVFGGGTRLTVL
notes: also called 011F12; not shown: CH2-CH3 constant domains of human IgG1 (pUPEX50 scFv-Fc fusion vector)

The remaining lines, values behind:

B1: 10B02 scFv-human Fc (Fc fusion)
scFv: QVQLVESGGGLVQPGGSLRVSCAASGFTFSYHYMNWVRQAPGKGLEWVSGISAGGGRTYYADSVKGRFTISRDNAKNTLYLQMNSLNAEDTALYYCARVHGITNDYWGQGTQVTVSSGGGGSGGGGSGGGGSQSALTQPPSVSGSPGKTVTISCAGTSSDVGYGNYVSWYQQLPGMAPKLLIYEVNKRASGITDRFSGSKSGNTAFLTISGLQSEDEADYYCASYRNSNNWVFGGGTHLTVL
notes: also called 010B02; not shown: CH2-CH3 constant domains of human IgG1 (pUPEX50 scFv-Fc fusion vector)
Kd [1]: 1000 pM | koff [1]: 0.0008 s⁻¹ | kon [1]: 770000 M⁻¹ s⁻¹ | Kd (human galectin-10-His [2]): 1600 pM | koff (human galectin-10-His [2]): 0.00081 s⁻¹ | kon (human galectin-10-His [2]): 500000 M⁻¹ s⁻¹ | EC50 [3]: 50 pM | EC50 (human galectin-10-His [4]): 90 pM | EC50 [5]: 50 pM | Kd [6]: 1000 pM | koff [6]: 0.0008 s⁻¹ | kon [6]: 770000 M⁻¹ s⁻¹ | Kd (human galectin-10-His [7]): 1600 pM | koff (human galectin-10-His [7]): 0.00081 s⁻¹ | kon (human galectin-10-His [7]): 500000 M⁻¹ s⁻¹ | Bmax [8]: 3.3 OD | EC50 [8]: 50 pM | Bmax (human galectin-10-His [9]): 2.2 OD | EC50 (human galectin-10-His [9]): 90 pM | Bmax [10]: 3.2 OD | EC50 [10]: 50 pM

B2: 8H11 scFv-human Fc (Fc fusion)
scFv: ELQLVESGGGLVQPGGSLRLSCAASGFTFSTNYMNWVRQAPGKGLEWVSGITSGGGRTYYADSVKGRFTISRDNAKNTLYLQMNSLKPEDTALYYCARTDHAWLDAWGQGTLVTVSSGGGGSGGGGSGGGGSQAGLTQPPSVSGTLGKTVTISCAGTSSDVGYGNYVSWYQQLPGTAPKLLIYAVSTRASGIPDRFSGSKSGNTASLTISGLLSEDEADYYCASYRSSNNYVFGGGTKLTVL
notes: also called 008H11; not shown: CH2-CH3 constant domains of human IgG1 (pUPEX50 scFv-Fc fusion vector)
Kd [1]: 900 pM | koff [1]: 0.00161 s⁻¹ | kon [1]: 1.75e+06 M⁻¹ s⁻¹ | Kd (human galectin-10-His [2]): 1800 pM | koff (human galectin-10-His [2]): 0.00082 s⁻¹ | kon (human galectin-10-His [2]): 453000 M⁻¹ s⁻¹ | EC50 [3]: 130 pM | EC50 (human galectin-10-His [4]): 180 pM | EC50 [5]: 100 pM | Kd [6]: 900 pM | koff [6]: 0.00161 s⁻¹ | kon [6]: 1.75e+06 M⁻¹ s⁻¹ | Kd (human galectin-10-His [7]): 1800 pM | koff (human galectin-10-His [7]): 0.00082 s⁻¹ | kon (human galectin-10-His [7]): 453000 M⁻¹ s⁻¹ | Bmax [8]: 3.1 OD | EC50 [8]: 130 pM | Bmax (human galectin-10-His [9]): 2.3 OD | EC50 (human galectin-10-His [9]): 180 pM | Bmax [10]: 3.1 OD | EC50 [10]: 100 pM
